# Source: patent US12460006B2, “Antibodies against integrin alpha 11 beta 1” (Momenta Pharmaceuticals, Inc., priority 2019, dated 2025)
# How the values were obtained:
# A549 cells = experiment: Tumor xenograft model; format: in vivo, C.B-17 SCID mice; conditions: for Days to Volume Doubling (ave, 95% CI): intraperitoneal every 3 days, 7 doses; for inhibition of tumor growth compared to isotype control: A549 xenograft, SCID mice
# Description: Fifty-six female C.B-17 SCID mice were inoculated with A549 cells (5×10^6 cells/mouse) subcutaneously in the flank. Once tumor volume reached ˜100 mm^3, animals were randomized amongst 7 groups of 8 mice each. Mice were then treated intraperitonealy every 3 days for a total of 7 doses with isotype controls or novel mAbs 79E3E3, 16E10 and 9G04 (2 and 20 mg/kg) or with docetaxel at 10 mg/kg every 4 days for a total of 6 doses. Tumor volumes and body weights were recorded twice a week with a gap of 2-3 days in between two measurements until any of the following conditions defined were observed: loss of 20% or more body weight; tumors that inhibit normal physiological function such as eating, drinking, and mobility; ulcerated tumors; tumor size greater than 2000 mm^3 and clinical observations of prostration, paralysis, seizures and hemorrhages.
# In this example, studies were performed to determine if inhibition of α11β1 function with mAb results in xenograft growth inhibition. As shown in FIG. 16 and Table 4, blocking α11β1 on mouse CAFs impeded xenograft growth in SCID mice.
# α11β1 Headpiece = experiment: SPR binding to α11β1 Headpiece; parameters: species or system human; conditions: SPR data
# Description: The affinity of antibodies for human α11β1 was measured by surface plasmon resonance assay (SPR). Affinity was measured at pH 7.6 and 25° C. with a Biacore T200 instrument. Anti-HIS antibody was immobilized on the SPR sensor surface using EDC/NHS covalent attachment. HIS-tagged human α11β1 was captured on the sensor surface and a single-cycle kinetics assay was used. Increasing concentrations of test antibody were injected in series over the sensor-bound α11β1. Dissociation was monitored for 1000 seconds. A sensor surface with only anti-HIS antibody and a series of blank injections were used to double-reference subtract the data. A 1:1 Langmuir model was fit to the data to estimate the kinetic association and dissociation constants. The affinity (equilibrium dissociation constant) of the interaction was calculated by dividing the kinetic dissociation constant by the kinetic association constant. Between injection cycles α11β1 and bound antibody were removed with an injection of 10 mM glycine at pH 1.5.
# The binding affinity of antibodies for the α11β1 Headpiece and α11β1 I Domain as measured by SPR is shown in FIG. 10A and FIG. 10B, respectively.
molecule,measurement,setting,value
"79E3E3: rat anti-α11β1 mAb; VH SEQ ID NO: 145, VL SEQ ID NO: 146 (antibody, V domains shown) VH: MDWLWNLLFLMVVAQSAQAQIQLVQSGPEVKKPGESVKISCKASGYTFTDYAMNWVKQAPGNGLKWMGWINTQTGKPTYADDFKQRFVFSLETSARTTYLQINNLNIEDTATYFCTRLGTGNTKGFAYWGQGTLVTVSS VL: MESQTHVLISLLLCVSGTCGDILINQSPASLTVSAGERVTMSCKSSQSLLYSENNQDYLAWYQQKPGQFPKLLIYGASNRHTGVPDRFTGSGSGTDFTLTISSVQAEDLADYYCEQTYRYPFTFGSGTKLEIK","Days to Volume Doubling (ave, 95% CI)",A549 cells; 2mpk,"8.5 (8.0, 9.0) Days"
same,"Days to Volume Doubling (ave, 95% CI)",A549 cells; 20mpk,"8.5 (8.0, 9.0) Days"
same,inhibition of tumor growth compared to isotype control,A549 cells,significantly inhibited tumor growth
"16E10: rabbit anti-α11β1 mAb; heavy chain SEQ ID NO: 161, light chain SEQ ID NO: 162 (antibody) heavy: METGLRWLLLVAVLKGVQCQSLEESGGDLVKPGASLTLTCRVSGFSFSSSYYMCWVRQAPGKGLEWIACIGTTRGSTYYATWAKGRFTISKISSTTVTLQMTSLTDADTATYFCARDATGYRINTIGLYFNLWGPGTLVTVSSGQPKAPSVFPLAPCCGDTPSSTVTLGCLVKGYLPEPVTVTWNSGTLTNGVRTFPSVRQSSGLYSLSSVVSVTSSSQPVTCNVAHPATNTKVDKTVAPSTCSKPMCPPPELPGGPSVFIFPPKPKDTLMISRTPEVTCVVVDVSQDDPEVQFTWYINNEQVRTARPPLREQQFNSTIRVVSTLPIAHQDWLRGKEFKCKVHNKALPAPIEKTISKARGQPLEPKVYTMGPPREELSSRSVSLTCMINGFYPSDISVEWEKNGKAEDNYKTTPTVLDSDGSYFLYSKLSVPTSEWQRGDVFTCSVMHEALHNHYTQKSISRSPGK light: MDTRAPTQLLGLLLLWLPGARCAFELTQTPSSVEAAVGGTPTIKCQASQTIYSYLSWYQQKPGQPPKLLIYEASKLASGVPSRFSGSGSGTDYTLTISDLECADAATYYCQSYHGTASTEYNTFGGGTEVVVRGDPVAPTVLIFPPAADQVATGTVTIVCVANKYFPDVTVTWEVDGTTQTTGIENSKTPQNSADCTYNLSSTLTLTSTQYNSHKEYTCKVTQGTTSVVQSFNRGDC",binding to the headpiece domain of α11β1,α11β1 Headpiece,do not bind
same,"Days to Volume Doubling (ave, 95% CI)",A549 cells; 2mpk,"7.9 (7.5, 8.3) Days"
same,"Days to Volume Doubling (ave, 95% CI)",A549 cells; 20mpk,"7.9 (7.5, 8.3) Days"
same,inhibition of tumor growth compared to isotype control,A549 cells,no significant inhibition of tumor growth
